The test addresses T1, human CD22 on cells (human, UniProt P20273 20-847).
T1 construct: whole, on cells; also called CD22-transfected 300.19 cells; CD22+ Raji cells
T1 sequence (looked up): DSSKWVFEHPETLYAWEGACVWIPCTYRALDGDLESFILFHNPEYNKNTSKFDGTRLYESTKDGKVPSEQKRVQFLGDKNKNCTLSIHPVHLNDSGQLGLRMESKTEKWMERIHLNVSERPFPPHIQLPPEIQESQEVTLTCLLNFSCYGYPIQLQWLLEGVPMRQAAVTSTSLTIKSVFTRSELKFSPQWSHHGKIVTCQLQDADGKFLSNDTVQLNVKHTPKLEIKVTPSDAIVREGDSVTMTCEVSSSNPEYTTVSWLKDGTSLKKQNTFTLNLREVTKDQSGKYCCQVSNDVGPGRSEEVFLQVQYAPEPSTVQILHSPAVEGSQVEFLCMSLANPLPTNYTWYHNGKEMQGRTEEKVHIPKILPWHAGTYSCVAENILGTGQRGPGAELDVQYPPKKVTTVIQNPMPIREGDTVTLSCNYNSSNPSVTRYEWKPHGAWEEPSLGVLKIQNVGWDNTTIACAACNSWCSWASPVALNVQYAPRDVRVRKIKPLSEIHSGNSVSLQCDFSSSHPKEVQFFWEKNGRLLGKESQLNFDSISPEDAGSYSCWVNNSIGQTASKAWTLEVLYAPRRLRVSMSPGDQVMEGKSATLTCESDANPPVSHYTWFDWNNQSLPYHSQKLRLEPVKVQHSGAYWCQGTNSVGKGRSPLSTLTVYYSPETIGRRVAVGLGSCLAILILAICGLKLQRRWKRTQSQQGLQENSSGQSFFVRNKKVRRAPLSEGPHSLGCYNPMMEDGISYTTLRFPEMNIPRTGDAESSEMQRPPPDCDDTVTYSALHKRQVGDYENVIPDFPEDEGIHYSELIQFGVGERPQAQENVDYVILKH
Nature of the test: flow cytometry of hybridoma supernatants on CD22-transfected 300.19 cells. The source says: MoAbs reactive with human CD22 were generated by fusion of NS-1 myeloma cells with splenocytes from a Balb/c mouse previously immunized three times with 30×10⁶ CD22-transfected 300.19 cells. Supernatants from hybridoma-containing wells were screened by flow cytometry for moAbs reactive with CD22-transfected 300.19 cells. Three reactive hybridomas were chosen for further characterization and were subcloned by limiting dilution (clones hCD22.7, hCD22.316 and hCD22.401). The three antibodies were of the IgG1K isotype, as determined using a mouse moAb isotyping kit (Boehringer Mannheim, Mannheim, Germany). Antibody specificity was further validated using a CD22-transfected COS cell line (pUNO1-hCD22; InvivoGen, Toulouse, France), the cell lines Raji, Daudi, […], U266 and Jurkat, and peripheral blood (PB) mononuclear cells (PBMCs). CD22 epitope binding to the hCD22.7 clone was determined by crossblocking with an antibody against the N-terminal domain of CD22 (S-HCL-1). The CD22-specific scFv derived from the hCD22.7 clone was obtained using the mouse IgG Library Primer Set (Progen, Heidelberg, Germany).
For orientation: A flow cytometer gives signals particle by particle.

B1: anti-CD22 monoclonal antibody clone hCD22.7 (antibody, V domains shown)
VH: EVQLQESGPSLVKPSQTLSLTCSVTGDSITSGYWNWIRKFPGNKLEYMGYISYSGSTYYNPSLKSRISITRDTSKNQYYMQLKSVTTEDTATYYCARYPSPDAMNYWGQGTSVTVSS
VL: not shown
notes: also called hCD22.7 moAb; hCD22.7 clone
B1: the binding result is recorded as “binds”.

These data come from patent US20230139885A1 (FUNDACI INSTITUT DE RECERCA CONTRA LA LEUC MIA JOSEP …, published 2023).
